# Measured values: PMC6071076, “Transcriptome-Wide Identification of an Aurone Glycosyltransferase with Glycosidase Activity from Ornithogalum saundersiae” (Genes, 2018)
# B1: OsUGT1 (Ornithogalum saundersiae) (protein)
# chain: MEGKKQHVVLFPFMGQGHITPFLLLAELIHEYYPDYTITLVNTPLNIRNLQSSLPPGSKINLKSLPFDASSHGLPPDTENTKAIPFHLFINLFRASETLEPAFERLIAGITEEDGIPPLCIIADNFFSWTLHIARKFGVFHSTFLTSGAYGSALLFSLWKYLPHRNAYSDEFSLPDFPEIRLHHTQLSNILVVADGGDAWSVLLRRLNELCTRSDAVLVNTVKEFEARGLSMLREQLQGPIFPVGPLLCTSASHSMGMDLSDWLDSQPSASVLYVSFGSQNTIRASQMLKLAMALEATSRPFIWVIRPPVGFDVRVQFKSEWLPEGFEDRMRGTKQGFIVHQWAPQVEILSHPSTGAFLSHCGWNSVLESLVHGVPIIGWPLSAEQFYNSKFLMEEVGVCVEAARGNRESSEVKKEEVERAIEIVMDNEEIRRKAKETARVLKSALKEEENNTNVGSSLRGLKEFFQTALSKRVVT
# How the values were obtained:
# [1] = substrate: O=c1cc(-c2ccccc2)oc2c(O)c(O)ccc12; assay: HPLC glucosylation assay, Lineweaver-Burk; assay type: biochemical, Ornithogalum saundersiae; details: 1 mM UDP-Glc fixed; 7,8-dihydroxyflavone 0-1 mM
# Description: (§1) HPLC glucosylation assay, Lineweaver-Burk on OsUGT1
# [2] = substrate: O=C1/C(=C/c2ccc(O)c(O)c2)Oc2cc(O)ccc21; assay: HPLC glucosylation assay, Lineweaver-Burk; assay type: biochemical, Ornithogalum saundersiae; details: 1 mM UDP-Glc fixed; sulfuretin 0-1 mM
# Description: as §1
protein,measurement,setting,value
B1,Km,[1],713 ± 69 µM
same,Vmax,[1],28.3 µM/min
same,Km,[2],159 ± 11 µM
same,Vmax,[2],3.47 µM/min
